The source of these data is patent publication US11242370B2, “Neuregulin-4 compounds and methods of use” (Eli Lilly and Company, priority 2019, dated 2022).

Substitutions are numbered along the chain they refer to. Names may count otherwise. Where only a bound is given, the exact number is not on record here.

The target in this experiment is T1, human HER2/HER3 (Homo sapiens, UniProt P21860).
T1 construct: expressed in transfected cells
The experiment in a line: Human HER2/HER3 phospho-ERK 1/2 assay, purified proteins, CHO-K1 cells. The format is cell-based. Particulars: for EC50: purified proteins, phospho-ERK1/2. On the procedure:
A cell based assay utilizing CHO-K1 cells overexpressing human or rat HER receptors is used to determine activity of NRG4 compounds. CHO-K1 cells (ATCC) are grown in DMEM-F12 3:1 with 5% FBS with 20 mM HEPES, 40 μg/mL L-Proline, lx antibiotics and were split 1:5 every 2-3 days with TripLE Express (Gibco). Cells are transfected with plasmid DNA encoding HER receptors in pairs (hHER2-3, hHER2-4, rHER2-3 and rHER2-4) with Fugene 6 (Promega) according to the manufacturer's instructions. […] Transfected cells are selected with Puromycin (12 ug/ml) and Hygromycin (1 mg/ml) for 3-4 weeks and clonal lines are obtained by limited dilution cloning into 96 well plates. Clonal lines are selected by appropriate gene expression of HER2, HER3 or HER4 by Taqman method. Lines with appropriate receptor expression are confirmed by NRG1 induced phospho-ERK 1/2 responses. Clones are grown up, harvested, aliquoted into cryovials and then frozen under liquid nitrogen for long-term storage.
A phospho-ERK1/2 activity assay is utilized with CHO-K1 cells overexpressing human or rat HER receptors to determine potencies and selectivity of purified NRG4 compounds. CHO-K1 cell lines expressing the human or rat HER receptors are cultured with selection medium (DMEM-F12 3:1 with 5% FBS with 20 mM HEPES, 40 μg/mL L-Proline, 1× antibiotics, 12 μg/mL puromycin, 1 mg/mL Hygromycin B). On Day −1 (the day before phospho-ERK1/2 assay), cells are washed once with PBS, detached with enzyme free cell dissociation solution (GIBCO cat #13151-014), and resuspended in plating medium (DMEM-F12 3:1 with 20 mM HEPES, lx antibiotics, 0.2% FBS). Cells are plated in a 96-well Poly-D-Lysine coated plate (BD cat #354640) at 10,000 cells per 0.1 mL per well. Cells are cultured in a tissue culture incubator at 37° C. 5% CO2 overnight. On Day 1 (the day of pERK1/2 assay), plates are incubated at room temperature for 30 min. The culture media are removed followed by addition of 504, ligand at various concentrations diluted in PBS-20 mM HEPES-0.005% BSA. Native human NRG1 and NRG4 peptides are purchased from Reprokine (Tampa, Fla.). The stimulation time is 30 min (except for hHER2-4 1H6 line in which 15 min is used for stimulation). At the end of stimulation, ligands are removed and 704, Lysis buffer (made according to manufacturer's recipe, Perkin Elmer cat #ALSU-PERK-A10K) is added. Plates are incubated at room temperature for 10 min on plate shaker with 350 rpm agitation, then on ice for 1 hour without shaking. 304, of cell lysis is transferred to a 96-well white Optiplate (Perkin Elmer cat #6002290) for phospho-ERK1/2 assay. Briefly 7.5 μL acceptor beads are added to 30 μL lysis in Optiplate. The plate is covered with aluminum foil and incubated at room temperature for 1 hour on plate shaker with 350 rpm agitation. Then 7.5 μL donor beads are added and the plate is covered with aluminum foil and incubated at room temperature for 2 hours on plate shaker with 350 rpm agitation or at 4° C. for overnight (warm up plate at room temperature for 2 h before reading). Alpha signal data are obtained on an Envision instrument (Alpha Technology-compatible plate reader). Donor beads and acceptor beads are made according to assay protocol. The data shown are generated with either the AlphaScreen SureFire p-ERK1/2 (Thr202/Tyr204) assay kit (Cat #TGRES50k) or the AlphaLISA® SureFire® Ultra™ p-ERK 1/2 (Thr202/Tyr204) assay kit (Perkin Elmer cat #ALSU-PERK-A10K). The activity of the NRG1 peptide was similar in both types of assays. […]

Broadly, the EC50 is the midpoint of the concentration-response curve. As to “WT NRG1: wild type human NRG1; native peptide purchased from Reprokine in Tables 7-9; comparator in the screening assays of Tables 4 and 6”, the EC50 amounted to 0.83 ± 0.2 nM. Turning to “WT NRG4: wild type human NRG4 (SEQ ID NO:1); parental hFcNRG4 in screening (Tables 4-6), native peptide from Reprokine in Tables 7-9 (DHEEPCGPSHKSFCLNGGLCYVIPTIPSPFCRCVENYTGARCEEVFL; listed as Homo sapiens)”, the EC50 was over 1000 nM. The “phospho-ERK1/2 activity at the human HER3 HER2 receptors” value (statement in text on Table 9) is on record as “no activity”.

B1: Example 10: NRG4 D1G/V22Q/E44K, (GGGGS)3 linker, SEQ ID NO: 19, fused to IgG Fc dimer SEQ ID NO: 6 and 7 (protein)
chain 1: GGGGSGGGGSGGGGSGHEEPCGPSHKSFCLNGGLCYQIPTIPSPFCRCVENYTGARCEKVFL
chain 2: ECPPCPAPPVAGPSVFLFPPKPKDTLMISRTPEVTCVVVDVSHEDPEVQFNWYVDGVEVHNAKTKPREEQFNSTFRVVSVLTVVHQDWLNGKEYKCKVSNKGLPAPIEKTISKTKGQPREPQVYTLPPSREEMTKNQVSLWCLVKGFYPSDIAVEWESNGQPENNYKTTPPVLDSDGSFFLYSKLTVDKSRWQQGNVFSCSVMHEALHNHYTQKSLSLSPG
chain 3: B1 chain 2 with W141S, L143A, Y182V
For the molecule B1, the EC50 was over 1000 nM.
